{
  "source": "the nanobody polyreactivity screen of Harvey et al. (2022)",
  "data": [
    {"experiment": "yeast display, Sf9 membrane polyspecificity reagent, FACS + sequencing; frameworks hold sequencing errors", "method_in_brief": "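Nanobodies from a synthetic yeast display library (Saccharomyces cerevisiae BJ5465), induced 36–48 hours with galactose, were stained 1 hour at 4 °C with 10% biotinylated, detergent-solubilized Sf9 membrane reagent, enriched on streptavidin microbeads, then FACS-sorted. Anti-HA (expression) and streptavidin (reagent binding) fluorescence set low and high (top ~1%) gates. Polyreactivity labels come from the gate of origin. Genes were colony-PCR amplified, MiSeq 2 × 250 sequenced and filtered by CDR length.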", "values": [
      {"sequence": "QVQLVESGGGLVQAGGSLRLSCAASGSIFKYYAMGWYRQAPGKERELVAAISSSGGSTYYADSVKGRFTISRDYAKYTVYCQMNSLKPQDTAVYYCNTPYIWKNYDYWGQGSQVTVSS", "polyreactivity (PSR sort gate)": "high polyreactivity"},
      {"sequence": "QVQLVESGGGLVQAGGSLRLSCAASGSIFKYYSMGWYRQAPGKERELVADISRSGGRTYYADSVKGRFTISRDNAKNTVYLQMNSLKPEDTAVYYCAALDTYQYFRILYGTYEYWGQGTQVTVSS", "polyreactivity (PSR sort gate)": "high polyreactivity"},
      {"sequence": "QVQLVESGGGLVQAGGSLRLSCAASGSIFKYYTMGWYRQAPGKERELVSGISYRGGSTYYADSVKGRFTISRDNAKNTVYLQMNSLKPEDTAVYYCATGSGFSPRRNTFRYGYWGQGTQVTVSS", "polyreactivity (PSR sort gate)": "high polyreactivity"},
      {"sequence": "QVQLVESGGGLVQAGGSLRLSCAASGSIFLAYAMGWDRQAPGKEREFVAAITWSGDSTYYADSVKGRFTISRDNAKNTVYLQMNSLKPEDTAVYYCAADYFGGPSYEFDYWGQGTQVTVSS", "polyreactivity (PSR sort gate)": "low polyreactivity"},
      {"sequence": "QVQLVESGGGLVQAGGSLRLSCAASGSIFLAYAMGWYRQAPGKEREFVAAISFSDGSTYYADSVKGRFTISRDNAKNTVYLQMNSLKPEDTAVYYCNKGASPVDYDYWGQGTQVTVSS", "polyreactivity (PSR sort gate)": "low polyreactivity"},
      {"sequence": "QVQLVESGGGLVQAGGSLRLSCAASGSIFLGNAMGWYRQAPGKERELVAGITNGDNTNYADSVKGRFTISRDNAKNTDYLQMNSLKPEDTAVYYCATGPYLIYDYWGQGTQVTVSS", "polyreactivity (PSR sort gate)": "low polyreactivity"},
      {"sequence": "QVQLVESGGGLVQAGGSLRLSCAASGSIFLGYTMGWYRPAPGKERELVAAISTRGGSTYYADSVKGRFTISRDNAKNTVYLQMNSLKPEDTAVYYCKARSRGRASGYDYWGQGTQVTVSS", "polyreactivity (PSR sort gate)": "high polyreactivity"},
      {"sequence": "QVQLVESGGGLVQAGGSLRLSCAASGSIFLHNAMGWYRQAPGKDRELVAAISGTGGRTYYADSVKGRFTISRDNAKNTVYLQMNSLKPEDTAVYYCAKAARTRGGYGYWGQGTQVTVSS", "polyreactivity (PSR sort gate)": "high polyreactivity"},
      {"sequence": "QVQLVESGGGLVQAGGSLRLSCAASGSIFLIYAMAWYRQAPGKERELVAAISSGGSTYYADSVKGRFTISRDNAKNTVYLQMNSLKPEDTAVYYCATYSTSVAYHLYYWGQGTQVTVSS", "polyreactivity (PSR sort gate)": "low polyreactivity"},
      {"sequence": "QVQLVESGGGLVQAGGSLRLSCAASGSIFLIYAMGWYRQAPGKERELVAAISSGGSTYYADSVKGGFTISRDNAKNTVYLQMNSLKPEDTAVYYCATYSTSVGYHLYYWGQGTQVTVSS", "polyreactivity (PSR sort gate)": "low polyreactivity"},
      {"sequence": "QVQLVESGGGLVQAGGSLRLSCAASGSIFLKNVMGWYRQAPGKERELVAAITARGGATYYADSVKGRFTISRDNAKKTVYLQLNSQKPEDTAVYYCAARARVVPSLGNPRMDYWGQGTQVTVSS", "polyreactivity (PSR sort gate)": "high polyreactivity"},
      {"sequence": "QVQLVESGGGLVQAGGSLRLSCAASGSIFLKYDMGWYRQAPGKERELVAAISRGGDTNYADSVKGLFTISRDNAKNCVYLQMNSLKPEDTAVYDCAARPGLYFTRRGRYYLGQGTQVTVSS", "polyreactivity (PSR sort gate)": "high polyreactivity"},
      {"sequence": "QVQLVESGGGLVQAGGSLRLSCAASGSIFLLYAMGWYRQAPGKERELVAAISTRDGSTYYADSVKGRFTLSRDNAKNTVYLQMNSLKPEDTAVYYCATLYSYNYWGQGTQVTVSS", "polyreactivity (PSR sort gate)": "high polyreactivity"},
      {"sequence": "QVQLVESGGGLVQAGGSLRLSCAASGSIFLLYAMGWYRQAPGKERELVARISWSGDNTRYADSVKGRFTISRDNAKNTVFLQMNSLKPEDTAVYYCNAYYFYGQWKGYDYWGQGTQVTVSS", "polyreactivity (PSR sort gate)": "low polyreactivity"},
      {"sequence": "QVQLVESGGGLVQAGGSLRLSCAASGSIFLLYAMGWYRQAPGKERELVARISWSGDNTRYADSVKGRFTISRDNEKNTVYLQMNSLKPEDTAFYYCNAVTFSWDYGYWGQGSQVTVSS", "polyreactivity (PSR sort gate)": "low polyreactivity"},
      {"sequence": "QVQLVESGGGLVQAGGSLRLSCAASGSIFLNYAMGWYRQAPGKERELVAAISYRVGRTYYADSVKGRFTISRDNAKNTVYLQMNSLKPEDTAVYYCAADSRSPGHDYWGQGTQVTVSS", "polyreactivity (PSR sort gate)": "high polyreactivity"},
      {"sequence": "QVQLVESGGGLVQAGGSLRLSCAASGSIFLRNAMGWYRQAPGKERELVASITWNGASTSYADSVKGRFTISRDNAKNTVYLQMNSLKPEDTAVYYCAAVTVQDSNLKYGYWGQGTQLTVSS", "polyreactivity (PSR sort gate)": "low polyreactivity"},
      {"sequence": "QVQLVESGGGLVQAGGSLRLSCAASGSIFLRYAMGSYRQAPGKDRELVAAITRSGGSTYYADSVKGRFTISRDNANNTVDLQMNSLKPEDTAVYYCAAYTLVTVGYDYWGQGTQVTVSS", "polyreactivity (PSR sort gate)": "high polyreactivity"},
      {"sequence": "QVQLVESGGGLVQAGGSLRLSCAASGSIFLRYAMGWYRQAPGKERELVAAISLSGGNTYYADSVKGRFTISRDNSKNTVYLQMNSLKPEDTAVYYCAATRTKRKFDYWGQGTQVTVSS", "polyreactivity (PSR sort gate)": "high polyreactivity"},
      {"sequence": "QVQLVESGGGLVQAGGSLRLSCAASGSIFLRYAMGWYRQAPGKERELVAAITTGGGSTYYADSVKGRFTISRDNAKNTVYLQMNRLKPEDPAVYYCAKRAQYHWRGRDDYSYYYWGQGTQVTVSS", "polyreactivity (PSR sort gate)": "low polyreactivity"},
      {"sequence": "QVQLVESGGGLVQAGGSLRLSCAASGSIFLRYAMGWYRQAPGKERELVAGITSGGSTNYADSVKGRFTISRDNAKNCVYLQMNSLKPEDTAVYYCNKDLPDWGHEWNGDSWGQGTQVTVSS", "polyreactivity (PSR sort gate)": "low polyreactivity"},
      {"sequence": "QVQLVESGGGLVQAGGSLRLSCAASGSIFLRYDMGWYRQAPGKERELVAAISRGGSTYYADSVKGRFTISRDNAKNTVYLQLNSLKPEDTAVYSCAARRFGREHGYWGQGTQVTVSS", "polyreactivity (PSR sort gate)": "high polyreactivity"},
      {"sequence": "QVQLVESGGGLVQAGGSLRLSCAASGSIFLSNPMGWYRQAPGKERELVAAITSGGRTTYADSVKGRFTISRDNAKNTVYLQMNSLKPEDTAVYYCAARQRWYWRGYDYWGQGTQVTVSS", "polyreactivity (PSR sort gate)": "high polyreactivity"},
      {"sequence": "QVQLVESGGGLVQAGGSLRLSCAASGSIFLSYDMGWYRQAPGKERELVAAITQSGGSTYYADSVKGRFTISRDNAKNTVYLQMNSLKPEDTAVYYCAADYGYFPQETYPTYGYYYWGQGTQVTVSS", "polyreactivity (PSR sort gate)": "low polyreactivity"},
      {"sequence": "QVQLVESGGGLVQAGGSLRLSCAASGSIFLWNAMGWYRQAPGKERELVAAISSSGGSTYYADSVKGRFTISRDNAKNTVYLQLNSLKPEDTAVYYCAAVSRSYYNSYNYWGQGTQVTVSS", "polyreactivity (PSR sort gate)": "high polyreactivity"},
      {"sequence": "QVQLVESGGGLVQAGGSLRLSCAASGSIFLYNAMGWYRQAPGKERELVAAISASGGSTYYADSVKGRFTISRDNAKNTVYLQMNSLKPEDTEVYFCAAQYSDYDGFTWPLPPRYDYWGQGTQVTVSS", "polyreactivity (PSR sort gate)": "high polyreactivity"},
      {"sequence": "QVQLVESGGGLVQAGGSLRLSCAASGSIFLYNAMGWYRQAPGKERELVAGITFIGGSTYYADSVKGRFTISRDNAKNTVYLQMNSLKPEDTAVYYCNADVAPGIFYGYDSWGQGTQVTVSS", "polyreactivity (PSR sort gate)": "low polyreactivity"},
      {"sequence": "QVQLVESGGGLVQAGGSLRLSCAASGSIFLYNAMGWYRQAPGKERELVASISSGGITDYADSVKGRFTISRDNAKNTVYLQMNSLKPEDTAVYYCAATYSVYLDYAGGGPLYNHWGQGTQVTVSS", "polyreactivity (PSR sort gate)": "low polyreactivity"},
      {"sequence": "QVQLVESGGGLVQAGGSLRLSCAASGSIFLYNAMGWYRQAPGKERELVASITYGSGSTYYADSVKGRFTISRDNAKNTVYLQMNSLKPEDTAVYYCAATRYYRHGRYDSWGQGTQVTVSS", "polyreactivity (PSR sort gate)": "high polyreactivity"},
      {"sequence": "QVQLVESGGGLVQAGGSLRLSCAASGSIFLYNAMGWYRQAPGKERELVATITYIGGRTYYADSVKGRFTISRDNAKNTVYLQMNSLKPEDSAVYYCAAEYYVISSPSFYEYDYWGQGTQVTVSS", "polyreactivity (PSR sort gate)": "low polyreactivity"},
      {"sequence": "QVQLVESGGGLVQAGGSLRLSCAASGSIFLYNDMGWYRQAPGKERELVAAISSGGNTNYADSVTGRFTISRDNAKNTVYLQMNSLKPEDTAVYYCNAAWIRVFQYTLYKYVYWGQGTQVTVSS", "polyreactivity (PSR sort gate)": "low polyreactivity"},
      {"sequence": "QVQLVESGGGLVQAGGSLRLSCAASGSIFLYNTKGWYRQAPGKERELVAAISFSGVTTYYADSVKGRFTISRDNAKNTVYLQMNSLKPEDTAVYYCNKYLWKFTNSPLGDYYWGQGTQVTVSS", "polyreactivity (PSR sort gate)": "high polyreactivity"},
      {"sequence": "QVQLVESGGGLVQAGGSLRLSCAASGSIFLYYAMGWYRQAPGKERELVAGIRRGGRTNYADSVKGRFTIPRDNAKNTVYLQMNSLKPEDTAVYYCAKGGYWGQGTQVTVSS", "polyreactivity (PSR sort gate)": "high polyreactivity"},
      {"sequence": "QVQLVESGGGLVQAGGSLRLSCAASGSIFNANAMGWYRQAPGNERELVAGIRSGSSTNYADSVKGRFTISRDNAKNTVYLQMNSLKPEDTAVYYCATEGYWVYGFDDEYWGQGTQVTVSS", "polyreactivity (PSR sort gate)": "low polyreactivity"},
      {"sequence": "QVQLVESGGGLVQAGGSLRLSCAASGSIFNDNVMGWYRPAPGKERELVAGISRSGTRTYYADSVKGRFTISRDNAKNTVYLQMNSLKPEDNAVYYCAAAYGQARRYNGSQYGSWGQGTQVTVSS", "polyreactivity (PSR sort gate)": "high polyreactivity"},
      {"sequence": "QVQLVESGGGLVQAGGSLRLSCAASGSIFNDYAMGWYRQAPGKERELVATISSGGDTYYADSVKGRFTISRDNAKNTVYLQMNSLKPEDTAVYYCAALTGGYVVYTDSYDYWGQGTQVTVSS", "polyreactivity (PSR sort gate)": "low polyreactivity"},
      {"sequence": "QVQLVESGGGLVQAGGSLRLSCAASGSIFNGNAMGWYRQAPGKERELVAAISSGDSTNYADSVKGRFTISRDNAKNTVYLQMNSLKPEDTAVYYCNAVHRSIARGGGMDYWGQGTQVTVSS", "polyreactivity (PSR sort gate)": "low polyreactivity"},
      {"sequence": "QVQLVESGGGLVQAGGSLRLSCAASGSIFNGYAMGWYRQAPGKERELVAAISKRGGSTYYADSVKGRFTISRDNAKNTVYLQMNSLKPEDTAVYYCAARRLFPYGYWGQGTQVTVSS", "polyreactivity (PSR sort gate)": "high polyreactivity"},
      {"sequence": "QVQLVESGGGLVQAGGSLRLSCAASGSIFNGYAMGWYRQAPGKERELVAAISRRGGSTYYADSVKGRFTISRVNAKNTVYLQMISLKPEDTAVYYCAADPRRPLSPQLSDYWGQGTQVTVSS", "polyreactivity (PSR sort gate)": "high polyreactivity"},
      {"sequence": "QVQLVESGGGLVQAGGSLRLSCAASGSIFNGYDMGWYRQAPWKERELVAAISLSGDSTYYADSVKGRFTISRDNAKNTVYLQMNSLKPEDTAVYYCAKGTISSYSPYWYYDYSDYEYWGQGTQVTVSS", "polyreactivity (PSR sort gate)": "low polyreactivity"},
      {"sequence": "QVQLVESGGGLVQAGGSLRLSCAASGSIFNGYTMGWYRQAPRKERELVAAISSRGGITYYADSVKGRFTISRDNAKNTVYLQMNSLKPEDTAVYYCAKTSGYYQAGSLKYGYWGQGTQVTVSS", "polyreactivity (PSR sort gate)": "high polyreactivity"},
      {"sequence": "QVQLVESGGGLVQAGGSLRLSCAASGSIFNIYAMGWYRQAPGKESELVAAISYSGGSTYYADSVKGRFTISRDNAKNTVYLQMNSLKPEDTAVYYCNADGYYFLISNANPLGYWGQGTQVTVSS", "polyreactivity (PSR sort gate)": "low polyreactivity"},
      {"sequence": "QVQLVESGGGLVQAGGSLRLSCAASGSIFNIYARGWYRQAPGKERELVATITGIADSTYYADSVKGRFTISRDNAKNTVYLQMNSLKPEDTAVYYCNADPSGVFFYSLEFDYWGQGTQVTVSS", "polyreactivity (PSR sort gate)": "low polyreactivity"}
    ]}
  ]
}
